Assay results published in article PMC6221358, “The Zn2Cys6-type transcription factor LeuB cross-links regulation of leucine biosynthesis and iron acquisition in Aspergillus fumigatus”.

Target: T1, LeuB DBD (LeuBM50-125YS, SPR) (Aspergillus fumigatus, UniProt Q4WI12 224-299)
T1 sequence: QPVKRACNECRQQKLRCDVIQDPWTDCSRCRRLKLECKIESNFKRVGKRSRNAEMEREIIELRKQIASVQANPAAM
Assay: SPR; 10 uM ZnCl2; 30 ug/ml poly(dAdT); SPR: 10 mM HEPES pH 7.4, 150 mM NaCl, 0.005% P20, 5 mM beta-mercaptoethanol, 10 uM ZnCl2, 25 C, LeuB DBD 6.25-400 nM with 30 ug/ml poly(dAdT); EMSA: as previously described (not given), 1 ug salmon sperm DNA as nonspecific or 100-fold cold probe as competitor
Details: protein: recombinant; tags: none stated; chain copies: 2; label: biotin; 16 bp duplex

B1: leuA 16 bp SPR duplex (dsDNA)
DNA 1: GGACCGATGTCGGATC
DNA 2: GATCCGACATCGGTCC
B1 gave a Kd of 95.2 nM.

B2: hapX 16 bp SPR duplex (dsDNA)
DNA 1: CCGCCGAAATCGGGAA
DNA 2: TTCCCGATTTCGGCGG
In the case of B2, the Kd is reported as 160 nM.
